Values quoted from earlier work as cited in patent publication US11807856B2, “Recombinant Pichia pastoris strain and method for producing active pediocin PA-1” (VIET NAM NATIONAL UNIVERSITY HO CHI MINH CITY, priority 2019, dated 2023).
Read-outs that look alike come from different tables or passages of the source. Ends that are not written are not given here.

Columns and labels:
[1] = pH 2-8
[2] = for activity after heat treatment: 100° C. for 60 minutes (1 hour); for antimicrobial activities after heat treatment: 121° C.

## native pediocin PA-1: class IIa bacteriocin, 4.6 kDa peptide with 44 amino acids, produced by Pediococcus acidilactici PAC1.0 (KYYGNGVTCGKHSCSVDWGKATTCIINNGAMAWATGGHQGNHKC; ends and bridges not checked; cysteine pairing not given here; UniProt P29430 19-62, looked up)
[1]
  time stable at pH levels of 2-8: at least 2 hours
[2]; listed as prior-art pediocin PA-1
  activity after heat treatment: stable
[2]; produced by Pediococcus acidilactici PAC1.0
  activity after heat treatment: remain its full activities
[2]; 20 minutes treatment, listed as prior-art pediocin PA-1
  antimicrobial activities after heat treatment: lost all activity
[2]; 20 minutes treatment, produced by Pediococcus acidilactici PAC1.0
  antimicrobial activities after heat treatment: completely disappeared
[2]; after 15 minutes
  antimicrobial activities after heat treatment: gradually reduced
